Among the data in the RNAGym collection of RNA variant scans (doi:10.7554/elife.80360) are self-cleavage values, retold here.

The labels stand for the following.
B1: Hairpin Ribozyme (parent)
chain: GUCCUCUUUCACGUGCGCGUGAAAGAGAGAAGUGAACCAGAGAAACACACGUUGUGGUAUAUUACCUGGUA

The variants in the data set derive from B1. Description: self-cleavage, relative activity (ratio to wild type); higher = more cleavage; co-transcriptional.
In the case of G54C A59C, the self-cleavage was 0.195.

Turning to U8G A23C, the self-cleavage was found to be 1.21.

C18A G29A: the self-cleavage was 0.149.

As to U20A A49U, the self-cleavage is 0.272.

On to A49C C50A, for which the self-cleavage was determined as 0.139.

Turning to A30U U55A, the self-cleavage was 0.0256.

Turning to A11C A47C, the self-cleavage amounted to 0.267.

A23G G68U: the self-cleavage worked out at 0.198.

As for C6G A71U, the self-cleavage stood at 0.409.

As for A49U U53C, the self-cleavage was found to be 0.124.

Consider C46A G57C, for which the self-cleavage was determined as 0.156.

C6G C50U: the self-cleavage was determined as 0.265.

In the case of G34C U52C, the self-cleavage came to 1.6.

For G1A A49C, the self-cleavage came to 0.0908.

U20C C48U: the self-cleavage was 0.175.

Regarding G51U G56U, the self-cleavage stood at 0.0869.

As for A47C C48G, the self-cleavage was 0.0552.

Take G34A A43C: the self-cleavage was found to be 0.229.

In the case of A36U C66A, the self-cleavage is 0.114.

As for U20A A26C, the self-cleavage turned out to be 0.394.

As to G17U A45G, the self-cleavage was 0.0728.

In the case of U5C U62C, the self-cleavage worked out at 0.0289.

For the variant G54A G69C, the self-cleavage worked out at 0.177.

As to U5G G69A, the self-cleavage was 0.0952.

Consider A26U G27A, for which the self-cleavage was found to be 0.228.

As for A36G U62G, the self-cleavage came to 0.221.

For the variant A11U C37A, the self-cleavage was 0.228.

As for G25A A30C, the self-cleavage was determined as 0.087.

Consider C38G G54C, for which the self-cleavage was found to be 0.12.

For C4G A41U, the self-cleavage amounted to 0.558.

For A23C G27A, the self-cleavage amounted to 0.464.

For the variant U20G A71U, the self-cleavage amounted to 0.605.

For A31U C46G, the self-cleavage amounted to 0.212.

G19C C38A: the self-cleavage amounted to 0.174.

Regarding G1U C46G, the self-cleavage came to 0.16.

As for U63A G68A, the self-cleavage turned out to be 0.276.

As to C50U U52C, the self-cleavage was determined as 0.343.

With A23G G27C, the self-cleavage came to 0.149.

As to G51A C65A, the self-cleavage turned out to be 1.17.

On to G17A A71G, for which the self-cleavage was found to be 1.04.

Take U20G G68C: the self-cleavage came out at 0.162.

Regarding A30C A64U, the self-cleavage turned out to be 0.211.

On to U5C U14A, for which the self-cleavage worked out at 0.428.

For the variant C3A U8A, the self-cleavage was found to be 0.547.

For A35C A61U, the self-cleavage came out at 0.125.

Turning to A43G G54C, the self-cleavage is 0.168.

As for C12G G42A, the self-cleavage was found to be 0.276.

In the case of U14C A45C, the self-cleavage stood at 0.206.

For G29A G42U, the self-cleavage was 0.197.

Turning to G15C C38U, the self-cleavage turned out to be 0.6.

Take U5G U53A: the self-cleavage is 0.455.

In the case of A36G C50U, the self-cleavage came to 0.407.

Take U20C U70G: the self-cleavage is 0.909.

For U60A U70G, the self-cleavage was 0.553.

Regarding C4U G13U, the self-cleavage was determined as 0.314.

Take U9C C18G: the self-cleavage is 0.56.

On to C48G A64U, for which the self-cleavage was found to be 0.149.

On to A24C A45G, for which the self-cleavage was determined as 0.171.

As for A11C G32C, the self-cleavage came to 0.0648.

For the variant A26C A36U, the self-cleavage came to 0.556.

With C12G U14C, the self-cleavage amounted to 0.61.

On to A22G A28G, for which the self-cleavage is 0.735.

For the variant A39G G42A, the self-cleavage came to 0.114.

Consider C18U G27U, for which the self-cleavage amounted to 0.303.

With U58G G68U, the self-cleavage worked out at 0.19.

As to A61U U62C, the self-cleavage worked out at 0.197.

For the variant C4A C38U, the self-cleavage turned out to be 0.135.

For U9A C16G, the self-cleavage turned out to be 0.511.

On to A30U C37U, for which the self-cleavage was 0.206.

As for G32U A61U, the self-cleavage was determined as 0.109.

With A36C G51U, the self-cleavage turned out to be 0.678.

For the variant G42U A44U, the self-cleavage stood at 0.19.

As to G42U A44C, the self-cleavage is 0.188.

With U8A U9C, the self-cleavage was 0.377.

For G32U A39G, the self-cleavage was found to be 0.0986.

As for G17A C50U, the self-cleavage came out at 0.373.

Regarding A41U C65A, the self-cleavage came out at 0.756.

C4G A23C: the self-cleavage was determined as 0.233.

With A22C A39G, the self-cleavage came to 0.362.

For the variant A28U A43U, the self-cleavage was 0.132.

On to C3A A49U, for which the self-cleavage was determined as 0.0975.

A28U G40U: the self-cleavage turned out to be 0.13.

As for C3G G32A, the self-cleavage came to 0.0849.

For the variant C6G G15A, the self-cleavage amounted to 0.475.

On to C6A A44C, for which the self-cleavage is 0.0999.

In the case of C48A U67A, the self-cleavage turned out to be 0.11.

Regarding G19C G34C, the self-cleavage came out at 1.31.

Consider C4U G15C, for which the self-cleavage worked out at 0.232.

As to C3A G15U, the self-cleavage is 0.761.

In the case of A22C A24U, the self-cleavage is 0.485.

As for G29C C46U, the self-cleavage worked out at 0.171.

In the case of U14A G42C, the self-cleavage amounted to 0.281.

For the variant A61C A64C, the self-cleavage came out at 0.0878.

As for U2A U63G, the self-cleavage is 0.0633.

For U9C U20A, the self-cleavage amounted to 0.692.

In the case of G25C G27U, the self-cleavage is 0.164.

For C3U U70C, the self-cleavage was 0.351.

For C12U C48A, the self-cleavage came to 0.107.

As to U7C C65A, the self-cleavage worked out at 0.684.

In the case of U52A G54U, the self-cleavage amounted to 0.64.

For the variant G19C A44G, the self-cleavage is 0.0921.

On to A41G G54U, for which the self-cleavage stood at 0.577.

Consider A39C G42U, for which the self-cleavage stood at 0.11.

For the variant G40U A41C, the self-cleavage came to 0.255.

As for U14G C16U, the self-cleavage is 1.06.

As to U2C U20A, the self-cleavage worked out at 0.25.

Consider A28C U58C, for which the self-cleavage stood at 0.545.

In the case of A30C C37U, the self-cleavage was 0.0704.

A26U A59C: the self-cleavage was 0.137.

Regarding A44U G56U, the self-cleavage was found to be 0.231.

Regarding U5G A64C, the self-cleavage was 0.155.

For the variant U20C A61C, the self-cleavage was determined as 0.138.

Regarding U60C A71C, the self-cleavage came to 1.66.

On to C37U U67A, for which the self-cleavage is 0.175.

In the case of A31U G69C, the self-cleavage came out at 0.111.

On to A22G C37G, for which the self-cleavage stood at 0.291.

As to G15A U67A, the self-cleavage turned out to be 0.188.

Regarding U7C C46U, the self-cleavage is 0.195.

On to A36C C65A, for which the self-cleavage is 0.52.

Regarding U14C C66A, the self-cleavage was 0.223.

As for C3G U14G, the self-cleavage amounted to 0.145.

For the variant G32U C38U, the self-cleavage came to 0.0994.

Take A31U C65U: the self-cleavage stood at 0.121.

For U9C A49C, the self-cleavage came out at 0.204.

Take U7G A59G: the self-cleavage was found to be 0.0757.

Consider G15A U53G, for which the self-cleavage stood at 0.687.

As for G34A G68A, the self-cleavage is 0.246.

In the case of G34A G68C, the self-cleavage is 0.283.

On to C4U C66U, for which the self-cleavage was determined as 0.234.

For the variant A24U G42U, the self-cleavage is 0.342.

Consider C6A A28C, for which the self-cleavage is 0.233.

Take G21A G32C: the self-cleavage worked out at 0.146.

On to U5G U63C, for which the self-cleavage is 0.116.

Regarding G29A A59G, the self-cleavage was 0.162.

As to C6A G21U, the self-cleavage was determined as 0.542.

As for G25U G57C, the self-cleavage was 0.163.

A47U A49C: the self-cleavage was 0.144.

As for U8C G29U, the self-cleavage stood at 0.081.

For C6A U70C, the self-cleavage turned out to be 0.618.

In the case of A61U C66U, the self-cleavage worked out at 0.176.

Turning to U14C G25U, the self-cleavage amounted to 0.762.

Take G17U U62G: the self-cleavage amounted to 0.122.

Consider G56A U63A, for which the self-cleavage came to 0.133.

Turning to A45C C65G, the self-cleavage came to 0.0639.

For A23G G51C, the self-cleavage was 0.91.

With G15A C66A, the self-cleavage amounted to 0.129.

On to U33A C37G, for which the self-cleavage was 0.182.

Turning to A11G A71G, the self-cleavage came out at 0.814.

As to C10A A43C, the self-cleavage worked out at 0.0904.

In the case of C46G U70A, the self-cleavage was found to be 0.161.

With G21A A43G, the self-cleavage amounted to 0.127.

In the case of G13C G68A, the self-cleavage amounted to 0.219.

As to G27U U60A, the self-cleavage amounted to 0.243.

In the case of U5A G21A, the self-cleavage came to 0.378.

In the case of G25U A39U, the self-cleavage stood at 0.242.

Turning to U52C A71U, the self-cleavage is 0.913.

In the case of A11C A28G, the self-cleavage was 0.951.

As to A24G U55G, the self-cleavage came out at 0.193.

In the case of G42C G68C, the self-cleavage amounted to 0.151.

A23C C66A: the self-cleavage stood at 0.218.

Take G13C A36U: the self-cleavage came to 0.4.

As to G34A U55G, the self-cleavage is 0.541.

On to C12A G42A, for which the self-cleavage stood at 0.168.

Consider G15C A45G, for which the self-cleavage was 0.194.

On to C12G A41U, for which the self-cleavage was determined as 1.25.

U9A G17C: the self-cleavage came out at 0.261.

On to G27C U67G, for which the self-cleavage amounted to 0.0952.
